# According to US20090149339A1 (published 2009):
# Ends that are not written are not given here. * marks the point of attachment. Biotin = O=C1N[C@H]2[C@H](CS[C@H]2CCCCC(=O)*)N1
# B1: FceRIb C-terminal PL peptide AA25L, biotinylated (peptide)
# peptide: Biotin-YSATYSELEDPGEMSPPIDL
# notes: also called Fc epsilon receptor beta I chain
# B2: FasLigand C-terminal PL peptide AA23L-M, biotinylated (peptide)
# peptide: Biotin-SSKSKSSEESQTFFGLYKL
# B3: CC CKR-1R C-terminal PL peptide AA41L, biotinylated (peptide)
# peptide: Biotin-LERVSSTSPSTGEHELSAGF
# Target: T1, GST-TAX33 PDZ domain fusion protein (tax interaction protein 33 AA73-162; PDZ domain 1 of 1) (UniProt P08515 1-218 = GST)
# T1 construct: also called TX33
# Assay: A/G assays
# T1 sequence (P08515 1-218, tags or fused parts left off): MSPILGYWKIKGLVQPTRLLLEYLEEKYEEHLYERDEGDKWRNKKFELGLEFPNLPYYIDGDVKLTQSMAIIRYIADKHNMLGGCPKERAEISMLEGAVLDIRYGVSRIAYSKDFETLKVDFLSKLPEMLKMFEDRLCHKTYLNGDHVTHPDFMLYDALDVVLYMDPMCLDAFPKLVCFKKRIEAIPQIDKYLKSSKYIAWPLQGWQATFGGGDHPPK
row,Binder,binding result
1,B1,no binding
2,B2,no binding
3,B3,no binding

# Target: GST-AF6 PDZ domain fusion protein (af-6 protein AA985-1077; PDZ domain 1 of 1) (UniProt P08515 1-218 = GST)
# Assay: A/G assays
# Chain of GST-AF6 PDZ domain fusion protein (af-6 protein AA985-1077; PDZ domain 1 of 1) (P08515 1-218, tags or fused parts left off): as above
row,Binder,binding result
1,B1,no binding
2,B2,no binding
3,B3,no binding

# Target: GST-DVL1 PDZ domain fusion protein (human dishevelled segment polarity protein homolog AA248-340); PDZ domain … (human, UniProt P08515 1-218 = GST)
# Assay: A/G assays
# Chain of GST-DVL1 PDZ domain fusion protein (human dishevelled segment polarity protein homolog AA248-340); PDZ domain … (P08515 1-218, tags or fused parts left off): as above
row,Binder,binding result
1,B1,no binding
2,B2,no binding
3,B3,no binding

# Target: GST-LIMK2 PDZ domain fusion protein (human LIM domain kinase 2 AA185-275; PDZ domain 1 of 1) (human, UniProt P08515 1-218 = GST)
# Assay: A/G assays
# Chain of GST-LIMK2 PDZ domain fusion protein (human LIM domain kinase 2 AA185-275; PDZ domain 1 of 1) (P08515 1-218, tags or fused parts left off): as above
row,Binder,binding result
1,B1,no binding
2,B2,no binding
3,B3,no binding

# Target: GST-MPP1 PDZ domain fusion protein (55 Kd erythrocyte membrane protein AA101-186; PDZ domain 1 of 1) (UniProt P08515 1-218 = GST)
# Assay: A/G assays
# Chain of GST-MPP1 PDZ domain fusion protein (55 Kd erythrocyte membrane protein AA101-186; PDZ domain 1 of 1) (P08515 1-218, tags or fused parts left off): as above
row,Binder,binding result
1,B1,no binding
2,B2,no binding
3,B3,no binding

# Target: T2, GST-TAX2 PDZ domain fusion protein (human tax interaction protein 2 AA54-140; PDZ domain 1 of 1) (human, UniProt P08515 1-218 = GST)
# T2 construct: also called TX 2
# Assay: A/G assays
row,Binder,binding result
1,B1,no binding
2,B2,no binding
3,B3,no binding

# Target: GST-MINT3 PDZ domain fusion protein (human MINT3 AA11-52; PDZ domain 1 of 1) (human, UniProt P08515 1-218 = GST)
# Assay: A/G assays
# Chain of GST-MINT3 PDZ domain fusion protein (human MINT3 AA11-52; PDZ domain 1 of 1) (P08515 1-218, tags or fused parts left off): as above
row,Binder,binding result
1,B1,no binding
2,B2,no binding
3,B3,no binding

# Target: T3, GST-41.8 kD PDZ domain fusion protein (hypothetical 41.8 kD protein AA4-85; PDZ domain 1 of 1) (UniProt P08515 1-218 = GST)
# T3 construct: also called hypoth
# Assay: A/G assays
# T3 sequence (P08515 1-218, tags or fused parts left off): as above
row,Binder,binding result
1,B1,no binding
2,B2,no binding
3,B3,no binding

# Target: T4, GST-CASK PDZ domain fusion protein (CASK AA495-584; PDZ domain 1 of 1) (mouse, UniProt P08515 1-218 = GST)
# T4 construct: also called mCASK
# Assay: A/G assays
# T4 sequence (P08515 1-218, tags or fused parts left off): as above
row,Binder,binding result
1,B1,no binding
2,B2,no binding
3,B3,no binding

# Target: T5, GST-KIAA0316 PDZ domain fusion protein (KIAA0316 AA197-284; PDZ domain 1 of 1) (UniProt P08515 1-218 = GST)
# T5 construct: also called K316
# Assay: A/G assays
# T5 sequence (P08515 1-218, tags or fused parts left off): as above
row,Binder,binding result
1,B1,no binding
2,B2,no binding
3,B3,no binding

# Target: GST-NOS1 PDZ domain fusion protein (human neuronal nitric oxide synthase; PDZ domain 1 of 1) (human, UniProt P08515 1-218 = GST)
# Assay: A/G assays
row,Binder,binding result
1,B1,no binding
2,B2,no binding
3,B3,no binding

# Target: GST-LIM PDZ domain fusion protein (Human LIM protein AA29-112; PDZ domain 1 of 1) (human, UniProt P08515 1-218 = GST)
# Assay: A/G assays
row,Binder,binding result
1,B1,no binding
2,B2,no binding
3,B3,no binding

# Target: T6, GST-RGS12 PDZ domain fusion protein (human regulator of G-protein signalling 12 AA35-103; PDZ domain 1 of 1) (human, UniProt P08515 1-218 = GST)
# T6 construct: also called RSG12
# Assay: A/G assays
# T6 sequence (P08515 1-218, tags or fused parts left off): as above
row,Binder,binding result
1,B1,no binding
2,B2,no binding
3,B3,no binding

# Target: T7, GST-SYN1a PDZ domain fusion protein (alpha1-syntrophin AA96-189; PDZ domain 1 of 1) (UniProt P08515 1-218 = GST)
# T7 construct: also called SYN 1 alpha; SYNTR 1 alpha
# Assay: A/G assays
# T7 sequence (P08515 1-218, tags or fused parts left off): as above
row,Binder,binding result
1,B1,no binding
2,B2,no binding
3,B3,no binding

# Target: GST-TIAM1 PDZ domain fusion protein (T-lymphoma invasion and metastasis inducing protein 1 AA1001-1088); PDZ 1 … (UniProt P08515 1-218 = GST)
# Assay: A/G assays
# Chain of GST-TIAM1 PDZ domain fusion protein (T-lymphoma invasion and metastasis inducing protein 1 AA1001-1088); PDZ 1 … (P08515 1-218, tags or fused parts left off): as above
row,Binder,binding result
1,B1,no binding
2,B2,no binding
3,B3,no binding

# Target: T8, GST-KIAA0303 PDZ domain fusion protein (KIAA0303 AA652-742; PDZ domain 1 of 1) (UniProt P08515 1-218 = GST)
# T8 construct: also called K303
# Assay: A/G assays
# T8 sequence (P08515 1-218, tags or fused parts left off): as above
row,Binder,binding result
1,B1,no binding
2,B2,no binding
3,B3,no binding

# Target: T9, GST-MPP2 PDZ domain fusion protein (maguk p55 subfamily member 2 (DLG2) AA185-273; PDZ domain 1 of 1) (UniProt P08515 1-218 = GST)
# T9 construct: also called MMP2
# Assay: A/G assays
row,Binder,binding result
1,B1,no binding
2,B2,no binding
3,B3,no binding

# Target: T10, GST-TAX40 PDZ domain fusion protein (human tax interaction protein 40 AA35-137; PDZ domain 1 of 1) (human, UniProt P08515 1-218 = GST)
# T10 construct: also called TX 40
# Assay: A/G assays
# T10 sequence (P08515 1-218, tags or fused parts left off): as above
row,Binder,binding result
1,B1,no binding
2,B2,no binding
3,B3,no binding

# Target: T11, GST-TAX43 PDZ domain fusion protein (human tax interaction protein 43 AA15-85; PDZ domain 1 of 1) (human, UniProt P08515 1-218 = GST)
# T11 construct: also called TX 43
# Assay: A/G assays
# T11 sequence (P08515 1-218, tags or fused parts left off): as above
row,Binder,binding result
1,B1,no binding
2,B2,no binding
3,B3,no binding

# Target: T12, GST-CBP PDZ domain fusion protein (Cytohesin binding protein HE AA85-175; PDZ domain 1 of 1) (UniProt P08515 1-218 = GST)
# T12 construct: also called Prot
# Assay: A/G assays
# T12 sequence (P08515 1-218, tags or fused parts left off): as above
row,Binder,binding result
1,B1,no binding
2,B2,no binding
3,B3,no binding

# Target: GST-PSD95 PDZ domain fusion protein (human post-synaptic density protein 95 AA387-724; PDZ domains 1-3 of 3) (human, UniProt P08515 1-218 = GST)
# Assay: A/G assays
# Chain of GST-PSD95 PDZ domain fusion protein (human post-synaptic density protein 95 AA387-724; PDZ domains 1-3 of 3) (P08515 1-218, tags or fused parts left off): as above
row,Binder,binding result
1,B1,no binding
2,B2,no binding
3,B3,no binding

# Target: T13, GST-NeDLG PDZ domain fusion protein (presynaptic protein sao102, neuroendocrine-dlg; PDZ domains 1-2 of 3) (UniProt P08515 1-218 = GST)
# T13 construct: also called NeDLG1
# Assay: A/G assays
# T13 sequence (P08515 1-218, tags or fused parts left off): as above
row,Binder,binding result
1,B1,no binding
2,B2,no binding
3,B3,no binding

# Target: T14, GST-KIAA0559 PDZ domain fusion protein (KIAA0559 AA766-870; PDZ1 of 1) (UniProt P08515 1-218 = GST)
# T14 construct: also called K559
# Assay: A/G assays
# T14 sequence (P08515 1-218, tags or fused parts left off): as above
row,Binder,binding result
1,B1,no binding
2,B2,no binding
3,B3,no binding

# Target: GST-PTN-4 PDZ domain fusion protein (protein-tyrosine phosphatase meg1 AA774-862; PDZ domain 1 of 1) (UniProt P08515 1-218 = GST)
# Assay: A/G assays
# Chain of GST-PTN-4 PDZ domain fusion protein (protein-tyrosine phosphatase meg1 AA774-862; PDZ domain 1 of 1) (P08515 1-218, tags or fused parts left off): as above
row,Binder,binding result
1,B1,no binding
2,B2,no binding
3,B3,no binding

# Target: GST-prIL16 PDZ domain fusion protein (putative interleukin 16 precursor AA170-383; PDZ domains 1-2 of 2) (UniProt P08515 1-218 = GST)
# Assay: A/G assays
# Chain of GST-prIL16 PDZ domain fusion protein (putative interleukin 16 precursor AA170-383; PDZ domains 1-2 of 2) (P08515 1-218, tags or fused parts left off): as above
row,Binder,binding result
1,B1,no binding
2,B2,no binding
3,B3,no binding
